Values of other authors, collected in US12539328B2, “Oral vaccine via dental bacteria and emitted peptides to prevent COVID-19 infection” (priority 2021, dated 2026).

System: SARS-CoV-2 infection of Vero E6 cells
Settings: first approach, built around an ACE2 helix; read-out: IC50 of SARS-CoV-2 neutralization

Molecule | IC50 [nM]
AHB2 (protein) ELEEQVMHVLDQVSELAHELLHKLTGEELERAAYFNWWATEMMLELIKSDDEREIREIEEEARRILEHLEELARK | 15.5
AHB1 (protein) DEDLEELERLYRKAEEVAKEAKDASRRGDDERAKEQMERAMRLDQVFELAQELQEKQTDGNRQKATHLDKAVKEAADELYQRVR | 35
